Assay [1] deals with T1, Human Rac1 (residues 1-177), GMPPNP-loaded (human, UniProt P63000 1-177). Kind of assay: ITC; 10 °C, GMPPNP-loaded Rac1 (average).
Assay [2] addresses T1, Human Rac1 (residues 1-177), …. Kind of assay: ITC; 15 °C.
For assay [3] the target is unchanged. The assay can be described thus: ITC; 35 °C, GMPPNP-loaded Rac1 (average).
The target is the same in assay [4]. Kind of assay: ITC; 15 °C, GMPPNP-loaded Rac1 (average).

B1: POSH_(315-380), shorter construct of human POSH comprising MRE1 and MRE2 (domain or fragment)
chain: GHMWSQASQNRHSMEISPPVLISSSNPTAAARISELSGLSCSAPSQVHISTTGLIVTPPPSSPVTTGPSF
For B1, the Kd in assay [1] was 26.8 µM; in assay [2], 21.6 µM; in assay [3], 21.7 µM; in assay [4] it was 20.2 µM.

Values taken from PMC12728182 (2025).
